The source of these data is patent publication CN113480658A (SHENZHEN INNOVA NANOBODI CO LTD, dated 2021).

The target of test [1] is T1, 人附睾蛋白(HE4) (human, UniProt Q14508 31-124).
T1 construct: also called HE4抗原; 抗原
T1 sequence (looked up): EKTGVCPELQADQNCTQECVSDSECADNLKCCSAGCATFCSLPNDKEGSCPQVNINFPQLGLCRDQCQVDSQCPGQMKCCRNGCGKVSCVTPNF
Put plainly: additive ELISA on HE4, 1G8 alone. (ELISA stands for enzyme-linked immunosorbent assay.)

In test [2] the target is T1, 人附睾蛋白(HE4). Put plainly: additive ELISA on HE4, 1D9 alone.
The target in test [3] is T1, 人附睾蛋白(HE4). Put plainly: SPR, Biacore T100, 1:1 binding fit. In general terms: In SPR one partner is held on a chip, and binding of the other changes the refractive index at the surface.

B1: 纳米抗体1G8 (VHH)
VHH: QVQLQESGGGLAQTGGSLRLSCVASGRTLDRYAIGWFRQAPGKEREFVAAISMSGTMTDYTDSVKGRFTISRDNAKNTVYLQMNSLKPDDTAVYCCAAGGRRGWGRALFAYDYWGQGTQVTVSS
Regarding B1, the ELISA reading (2nd抗体) with 人附睾蛋白(HE4) [1] was determined as 0.481.

B2: 纳米抗体1D9 (抗HE4单价纳米抗体) (VHH)
VHH: QVQLQESGGGLVQPGGSLRLSCAASGPRFSSYGMGWFRQAPGKEREFVAAISMSGTMTDYTDSVKGRFTISRDNAKNTVYLQMNSLKPDDTAVYCCAAGGRRGWGRALFAYDYWGQGTQVTVSS
notes: CDR1 26-33, CDR2 51-58, CDR3 97-113); Expressed in E. coli from pMES4 and purified
In the case of B2, in the test with 人附睾蛋白(HE4) [2], the “ELISA reading (1st抗体)” value is 0.286. This molecule had a Kd with 人附睾蛋白(HE4) [3] of 11.9 pM.

B3: 抗HE4二价纳米抗体1D9-LHC (VHH)
VHH: QVQLQESGGGLVQPGGSLRLSCAASGPRFSSYGMGWFRQAPGKEREFVAAISMSGTMTDYTDSVKGRFTISRDNAKNTVYLQMNSLKPDDTAVYCCAAGGRRGWGRALFAYDYWGQGTQVTVSS
In the test with 人附睾蛋白(HE4) [3], B3 came in with a dissociation constant (Kd) of 6.9 pM.

The term Kd denotes a measure of binding affinity in units of concentration. A higher Kd goes with weaker binding.
